Measurements: patent US20200247903A1

What was measured:
[1] = target: TER-119 antigen (Ly76, 52 kD glycophorin A-associated protein) on mouse erythrocytes (mouse); assay: flow cytometry histogram on C57BL/6 mouse erythrocytes, PE-anti rat Ig; antibody quantity of this sample not given; RBC alone 2.80 [continued) I]
[2] = target: Mouse CD24 (Heat Stable Antigen, Ly-52, Nectadrin) on mouse erythrocytes (mouse) (UniProt P24807); assay: as above
[3] = target: Band 3 antigen on mouse erythrocytes (mouse) (UniProt P04919); assay: flow cytometry on mouse RBCs (++++ = MFI > 500)
Sequence of UniProt P04919 (P04919 whole entry): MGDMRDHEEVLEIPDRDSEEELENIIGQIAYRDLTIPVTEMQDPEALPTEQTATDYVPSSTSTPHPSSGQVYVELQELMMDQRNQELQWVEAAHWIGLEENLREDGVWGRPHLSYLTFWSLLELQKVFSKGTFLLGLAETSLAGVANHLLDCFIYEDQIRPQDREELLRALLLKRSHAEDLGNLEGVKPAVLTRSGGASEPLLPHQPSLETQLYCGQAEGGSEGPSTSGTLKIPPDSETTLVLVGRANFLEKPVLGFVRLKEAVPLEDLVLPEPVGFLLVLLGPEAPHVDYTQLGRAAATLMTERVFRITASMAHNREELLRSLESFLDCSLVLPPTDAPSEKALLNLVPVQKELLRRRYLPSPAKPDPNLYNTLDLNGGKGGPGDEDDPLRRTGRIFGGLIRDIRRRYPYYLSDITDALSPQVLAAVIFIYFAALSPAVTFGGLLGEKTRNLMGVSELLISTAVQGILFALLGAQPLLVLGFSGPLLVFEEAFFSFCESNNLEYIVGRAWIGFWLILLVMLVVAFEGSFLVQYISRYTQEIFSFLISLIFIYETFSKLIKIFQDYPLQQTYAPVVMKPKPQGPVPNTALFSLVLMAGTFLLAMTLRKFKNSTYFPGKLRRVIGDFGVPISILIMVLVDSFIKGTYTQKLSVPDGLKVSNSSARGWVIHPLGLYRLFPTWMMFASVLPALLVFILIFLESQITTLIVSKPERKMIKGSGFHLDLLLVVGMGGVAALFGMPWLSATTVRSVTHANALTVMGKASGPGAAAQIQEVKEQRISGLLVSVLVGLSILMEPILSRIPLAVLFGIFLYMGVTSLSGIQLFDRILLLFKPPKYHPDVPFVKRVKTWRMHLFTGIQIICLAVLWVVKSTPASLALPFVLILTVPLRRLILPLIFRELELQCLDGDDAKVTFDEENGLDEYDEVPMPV

[4] = target: Mouse CD24 (Heat Stable Antigen, Ly-52, Nectadrin) on mouse erythrocytes (mouse) (UniProt P24807); assay: flow cytometry on mouse RBCs (++++ = MFI > 500)
[5] = target: TER-119 antigen (Ly76, 52 kD glycophorin A-associated protein) on mouse erythrocytes (mouse); assay: flow cytometry on mouse RBCs (++++ = MFI > 500)
[6] = target: TER-119 antigen (Ly76, 52 kD glycophorin A-associated protein) on mouse erythrocytes (mouse); assay: flow cytometry saturation binding on RBCs
[7] = target: TER-119 antigen (Ly76, 52 kD glycophorin A-associated protein) on mouse erythrocytes (mouse); assay: cell-based or functional assay
[8] = target: TER-119 antigen (Ly76, 52 kD glycophorin A-associated protein) on mouse erythrocytes (mouse); assay: flow cytometry on mouse RBCs (+++ = MFI > 250)

Sequence of UniProt P24807 (P24807 27-53): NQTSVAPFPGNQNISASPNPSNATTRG

Isotype control (antibody)
Median : YLW-HLog [1]: 2.76 | Median : YLW-HLog [2]: 2.76

34-3C (anti-Band 3 mAb, mouse IgG2a) (antibody)
MFI [3]: > 500 mfi

M1/69 (rat IgG2b antibody to mouse CD24)
Median : YLW-HLog [2]: 113 | MFI [4]: > 500 mfi

B1: TER-119 antibody (rat IgG2b monoclonal antibody to the mouse TER-119 antigen) (antibody, V domains shown)
VH: EVKLQESGGGLVQPGGSLKLSCVASGFTFRDHWMNWVRQAPGKTMEWIGDIRPDGSDTNYAPSVRNRFTISRDNARSILYLQMSNMRSDYTATYYCVRDSPTRAGLMDAWGQGTSVTVSS
VL: DIQMTQSPSVLSASVGDRVTLNCKASQNINKYLNWYQQKLGEAPKVLIYNTNNLQTGIPSRFSGSGSGTDFTLTISSLQPEDFATYFCFQHYTWPTFGGGTKLEIKR
Median : YLW-HLog [1]: 112 | MFI [5]: > 500 mfi | Kd [6]: 30 nM | phagocytic index of TER-119 opsonized RBCs by RAW264.7 macrophages (lowest effective concentration) [7]: 1.25 µg/mL | phagocytic index of TER-119 opsonized RBCs by RAW264.7 macrophages (plateau) [7]: 5 µg/mL

B2: Deglycosylated TER-119 (antibody, V domains shown)
VH: B1 VH
VL: B1 VL
modifications: Fc glycan removed (a variant without the Fc glycan)
MFI [8]: 250 to 500 mfi | Median : YLW-HLog [1]: 126
